Where two headings read alike, the source gives them in different places.
Legend:
Assay in all cases: cell binding
[1] = target: T1, mouse MAdCAM expressed on cells (mouse, UniProt Q61826 22-405)
T1 construct: whole, on cells
T1 sequence (looked up): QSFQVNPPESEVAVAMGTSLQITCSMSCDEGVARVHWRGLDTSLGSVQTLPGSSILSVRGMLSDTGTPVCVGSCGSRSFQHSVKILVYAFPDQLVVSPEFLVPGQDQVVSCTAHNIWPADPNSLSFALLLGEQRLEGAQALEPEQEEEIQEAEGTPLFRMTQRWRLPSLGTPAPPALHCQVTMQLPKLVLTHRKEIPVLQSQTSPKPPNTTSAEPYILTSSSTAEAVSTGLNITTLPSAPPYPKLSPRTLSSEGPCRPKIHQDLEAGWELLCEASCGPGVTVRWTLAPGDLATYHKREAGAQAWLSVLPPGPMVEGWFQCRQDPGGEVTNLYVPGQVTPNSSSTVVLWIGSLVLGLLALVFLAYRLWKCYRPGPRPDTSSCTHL

[2] = target: T2, human MAdCAM expressed on cells (human, UniProt Q13477 19-382)
T2 construct: whole, on cells; also called MADCAM1
T2 sequence (looked up): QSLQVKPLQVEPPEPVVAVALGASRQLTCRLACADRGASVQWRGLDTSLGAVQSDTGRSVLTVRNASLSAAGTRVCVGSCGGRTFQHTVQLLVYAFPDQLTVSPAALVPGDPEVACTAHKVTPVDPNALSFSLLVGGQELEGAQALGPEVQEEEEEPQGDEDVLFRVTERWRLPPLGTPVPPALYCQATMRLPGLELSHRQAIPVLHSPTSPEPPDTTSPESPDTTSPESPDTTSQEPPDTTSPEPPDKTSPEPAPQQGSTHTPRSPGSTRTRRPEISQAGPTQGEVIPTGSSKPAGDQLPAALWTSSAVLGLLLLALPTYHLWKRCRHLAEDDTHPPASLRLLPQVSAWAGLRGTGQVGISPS

[3] = target: T1, mouse MAdCAM expressed on cells; remark: listed apart in the source
[4] = target: T2, human MAdCAM expressed on cells; remark: listed apart in the source

| binding result [1] | binding result [2] | binding result [3] | binding result [4] | Binder |
| --- | --- | --- | --- | --- |
| no binding | – | – | – | MAdCAM Antibody Table 1 Clone 30 (scFv) scFv: QVQLVQSGAEVKKPGASVKVSCKASGYTLTTWYMYWVRQAPGQGLEWMGWINPNRGATNYAQKFQGRVTMTRDTSTSTVYMELSSLRSEDTAVYYCAKGDLWGAMDVWGQGTLVTVSSGGGGSGGGGSGGGGSGGGGSDIQMTQSPSSLSASVGDRVTITCRASDNIGSWLAWYQQKPGKAPKLLIYAASSLQSGVPSRFSGSGSGTDFTLTISSLQPEDFATYYCQQGYSTPPTFGQGTKVEIK |
| no binding | binds | – | – | MAdCAM Antibody Table 1 Clone 13 (scFv) scFv: EVQLLESGGGLVQPGGSLRLSCAASGFTFDDYAMHWVRQAPGKGLEWVSYIDASGTTIYYADSVKGRFTISRDNSKNTLYLQMNSLRAEDTAVYYCAKDQAAAGYWYFDLWGRGTLVTVSSGGGGSGGGGSGGGGSGGGGSDIQMTQSPSSLSASVGDRVTITCQASQDISNYLNWYQQKPGKAPKLLIYKASTLESGVPSRFSGSGSGTDFTLTISSLQPEDFATYYCQQSYSTPITFGQGTRLEIK |
| no binding | binds | – | – | MAdCAM Antibody Table 1 Clone 14 (scFv) scFv: QVQLVQSGAEVKKPGSSVKVSCKASGYTFTDYHIHWVRQAPGQGLEWMGGIVPRSGSTTYAQKFQGRVTITADESTSTAYMELSSLRSEDTAVYYCAKDESSGWYYFDYWGQGTLVTVSSGGGGSGGGGSGGGGSGGGGSDIVMTQSPLSLPVTPGEPASISCRSSQSLLHSNGYNYLDWYLQKPGQSPQLLIYSAYNRASGVPDRFSGSGSGTDFTLKISRVEAEDVGVYYCMQALQTPLTFGQGTKVEIK |
| no binding | binds | – | – | MAdCAM Antibody Table 1 Clone 15 (scFv) scFv: QVQLVQSGAEVKKPGSSVKVSCKASGYTFTNYYMHWVRQAPGQGLEWMGGIIPIVDRVKYAQKFQGRVTITADESTSTAYMELSSLRSEDTAVYYCAKGRYTVNYYYGMDVWGQGTTVTVSSGGGGSGGGGSGGGGSGGGGSDIQMTQSPSSLSASVGDRVTITCQANQDISNYLNWYQQKPGKAPKLLIYRASKLEAGVPSRFSGSGSGTDFTLTISSLQPEDFATYYCQQSSEIPYSFGQGTKLEIK |
| no binding | – | – | – | MAdCAM Antibody Table 1 Clone 8 (scFv) scFv: EVQLLESGGGLVQPGGSLRLSCAASGFMFGDYAMHWVRQAPGKGLEWVSAISGSGGSTYYADSVKGRFTISRDNSKNTLYLQMNSLRAEDTAVYYCAKDLVVAGIWYFDLWGRGTLVTVSSGGGGSGGGGSGGGGSGGGGSDIQMTQSPSSLSASVGDRVTITCRASQGISNNLNWYQQKPGKAPKLLIYDASSLESGVPSRFSGSGSGTDFTLTISSLQPEDFATYYCQQTHSFPSTFGQGTKLEIK |
| no binding | binds | – | – | MAdCAM Antibody Table 1 Clone 12 (scFv) scFv: QVQLVQSGAEVKKPGASVKVSCKASGYTFTGYYMHWVRQAPGQGLEWMGWIGPNSGDTNYAQKFQGRVTMTRDTSTSTVYMELSSLRSEDTAVYYCARDLDHNWYFDLWGRGTLVTVSSGGGGSGGGGSGGGGSGGGGSDIVMTQSPLSLPVTPGEPASISCRSSQSLLHSNGYNYLDWYLQKPGQSPQLLIYSSSNRAPGVPDRFSGSGSGTDFTLKISRVEAEDVGVYYCMQALHIPLTFGGGTKVEIK |
| no binding | binds | – | – | MAdCAM Antibody Table 1 Clone 17 (scFv) scFv: EVQLLESGGGLVQPGGSLRLSCAASGFTFSDSAMHWVRQAPGKGLEWVSAISGSGSTIYYADSVKGRFTISRDNSKNTLYLQMNSLRAEDTAVYYCVSDIAVAGHWYFDLWGRGTLVTVSSGGGGSGGGGSGGGGSGGGGSDIQMTQSPSSLSASVGDRVTITCRASQSISTFLNWYQQKPGKAPKLLIYAASRLEGGVPSRFSGSGSGTDFTLTISSLQPEDFATYYCQQANSFPLTFGPGTKVDIK |
| no binding | binds | – | – | MAdCAM Antibody Table 1 Clone 16 (scFv) scFv: EVQLLESGGGLVQPGGSLRLSCAASGFTFEDYAMHWVRQAPGKGLEWVSYLNSDGGSTSYADSVKGRFTISRDNSKNTLYLQMNSLRAEDTAVYYCAKDYCTNGVCAFDYWGQGTLVTVSSGGGGSGGGGSGGGGSGGGGSDIQMTQSPSSLSASVGDRVTITCRASQSISTYLNWYQQKPGKAPKLLIYDASNLETGVPSRFSGSGSGTDFTLTISSLQPEDFATYYCQQSYTIPITFGQGTRLEIK |

The next lines start with the binder.

| Binder | binding result [1] | binding result [2] | binding result [3] | binding result [4] |
| --- | --- | --- | --- | --- |
| MAdCAM Antibody Table 1 Clone 21 (scFv) scFv: EVQLLESGGGLVQPGGSLRLSCAASGFTFSNAWMSWVRQAPGKGLEWVSTIVGNGGATYYADSVKGRFTISRDNSKNTLYLQMNSLRAEDTAVYYCARDNPLRWQGMDVWGQGTLVTVSSGGGGSGGGGSGGGGSGGGGSDIQMTQSPSSLSASVGDRVTITCRASQDISNYLNWYQQKPGKAPKLLIYAASSLQSGVPSRFSGSGSGTDFTLTISSLQPEDFATYYCQQSYSIPPTFGPGTKVDIK | no binding | binds | – | – |
| MAdCAM Antibody Table 2 Clone 80 (antibody, human IgG1, V domains shown) VH: EVQLLESGGGLVQPGGSLRLSCAASGFTFDDYAMHWVRQAPGKGLEWVSAISGSGGSTYYADSVKGRFTISRDNSKNTLYLQMNSLRAEDTAVYYCAKDLGVVVPAALDYWGQGTTVTVSS VL: DIQMTQSPSSLSASVGDRVTITCQASQDISNHLNWYQQKPGKAPKLLIYDASNLEAGVPSRFSGSGSGTDFTLTISSLQPEDFATYYCQQSYSTPLTFGGGTKVEIK | – | – | no binding | binds |
| MAdCAM Antibody Table 1 Clone 1 (scFv) scFv: EVQLLESGGGLVQPGGSLRLSCAASGFTFSSYGMHWVRQAPGKGLEWVAVISDDGSDKYYADSVKGRFTISRDNSKNTLYLQMNSLRAEDTAVYYCTTSKYYYYYGMDVWGQGTTVTVSSGGGGSGGGGSGGGGSGGGGSDIQMTQSPSSLSASVGDRVTITCQASQDISKSLNWYQQKPGKAPKLLIYAASSLQSGVPSRFSGSGSGTDFTLTISSLQPEDFATYYCQQGYSTPLTFGGGTKVEIK | – | binds | – | – |
| MAdCAM Antibody Table 1 Clone 10 (scFv) scFv: QVQLVQSGAEVKKPGASVKVSCKASGYTLTTWYMYWVRQAPGQGLEWMGWINPNRGATNYAQKFQGRVTMTRDTSTSTVYMELSSLRSEDTAVYYCAKGDLWGAMDVWGQGTLVTVSSGGGGSGGGGSGGGGSGGGGSDIQMTQSPSSLSASVGDRVTITCRASDNIGSWLAWYQQKPGKAPKLLIYAASSLQSGVPSRFSGSGSGTDFTLTISSLQPEDFATYYCQQGYSTPPTFGQGTKVEIK | no binding | binds | – | – |
| MAdCAM Antibody Table 1 Clone 25 (scFv) scFv: QVQLVQSGAEVKKPGASVKVSCKASGYTLTTWYMYWVRQAPGQGLEWMGWINPNRGATNYAQKFQGRVTMTRDTSTSTVYMELSSLRSEDTAVYYCAKGDLWGAMDVWGQGTLVTVSSGGGGSGGGGSGGGGSGGGGSDIQMTQSPSSLSASVGDRVTITCRASDNIGSWLAWYQQKPGKAPKLLIYAASSLQSGVPSRFSGSGSGTDFTLTISSLQPEDFATYYCQQGYSTPPTFGQGTKVEIK | no binding | – | – | – |
| MAdCAM Antibody Table 2 Clone 83 (antibody, human IgG1, V domains shown) VH: EVQLLESGGGLVQPGGSLRLSCAASGFTFSSYWMHWVRQAPGKGLEWVAAISYDGKYKDYEDSVKGRFTISRDNSKNTLYLQMNSLRAEDTAVYYCARENKQWLASFDYWGQGTLVTVSS VL: DIQMTQSPSSLSASVGDRVTITCQASQDISNFVNWYQQKPGKAPKLLIYAANLRSGVPSRFSGSGSGTDFTLTISSLQPEDFATYYCQQANSFPVTFGPGTKVDIK | – | – | binds | binds |
| MAdCAM Antibody Table 2 Clone 82 (antibody, human IgG1, V domains shown) VH: QVQLVQSGAEVKKPGASVKVSCKASGYTFTRHWIHWVRQAPGQGLEWMGWINVKTGGAGYAQKFQGRVTMTRDTSTSTVYMELSSLRSEDTAVYYCARESSGWYGTDVWGQGTTVTVSS VL: DIQMTQSPSSLSASVGDRATITCRASQSISNYLAWYQQKPGKAPKLLIYAASSLQSGVPSRFSGSGSGTDFTLTISSLQPEDFATYYCQQSNSFPLTFGGGTKVEIK | – | – | binds | binds |
| MAdCAM Antibody Table 2 Clone 84 (antibody, human IgG1, V domains shown) VH: QVQLVQSGAEVKKPGASVKVSCKASGGTFSSSAISWVRQAPGQGLEWMGWISAYNGYTNYAQKFQGRVTMTRDTSTSTVYMELSSLRSEDTAVYYCASRVHSGGSYPDDYWGQGTLVTVSS VL: DIQMTQSPSSLSASVGDRVTITCQASEHIYNYLNWYQQKPGKAPKLLIYAASSLQSGVPSRFSGSGSGTDFTLTISSLQPEDFATYYCQQTDSIPITFGQGTKVEIK | – | – | binds | binds |
| MAdCAM Antibody Table 2 Clone 81 (antibody, human IgG1, V domains shown) VH: EVQLLESGGGLVKPGGSLRLSCAASGFAFSSHWMHWVRQAPGKGLEWVAGTSGSGESRDYADFVKGRFTISRDDSKNTLYLQMNSLKTEDTAVYYCARETYYYYYMDVWGKGTTVTVSS VL: DIQMTQSPSSLSASVGDRVTITCRASQGISNYLAWYQQKPGKAPKLLIYDAANLEGGVPSRFSGSGSGTDFTLTISSLQPEDFATYYCQQSDIFPPTFGQGTKVEIK | – | – | binds | binds |
